Where only a bound is given, the exact number is not on record here.

Assay [1] has as its target Mcm2-7 helicase labeled at the N terminus of Mcm6 with DyLight 650 (Mcm2-7^6N-650), used as Mcm2-7-Cdt1 (S. cerevisiae) (UniProt P29469). Put plainly: FRET or BRET; single-molecule FRET with colocalisation (CoSMoS), Orc6-tether assay: donor DyLight 550 on Orc6 of ORC, acceptor DyLight 650 at the N terminus of Mcm6 of Mcm2-7; origin DNA attached to the slide; 0.5 to 1 nM ORC, 3 to 10 nM Cdc6, 10 to 15 nM Mcm2-7-Cdt1; 25 mM HEPES-KOH pH 7.6, 300 mM potassium glutamate, 5 mM Mg(OAc)2, 3 mM ATP; only events with ORC and Mcm2-7 both on DNA for at least five frames; the high E_FRET state is read as the Orc6N-Mcm2-7N (tether) interaction. In general terms: Bioluminescence resonance energy transfer reports proximity on the nanometre scale.

Assay [2] deals with Mcm2-7^6N-650 in complex with Cdt1 labeled with DyLight 650 (Mcm2-7^6N-650-Cdt1^C-650) (S. cerevisiae) (UniProt P29469).
Assay [3] has the same target. The assay is described as follows: FRET or BRET; single-molecule FRET with colocalisation (CoSMoS), Orc6-tether assay: donor DyLight 550 on Orc6 of ORC, acceptor DyLight 650 at the N terminus of Mcm6 of Mcm2-7; origin DNA attached to the slide; 0.5 to 1 nM ORC, 3 to 10 nM Cdc6, 10 to 15 nM Mcm2-7-Cdt1; 25 mM HEPES-KOH pH 7.6, 300 mM potassium glutamate, 5 mM Mg(OAc)2, 3 mM ATP; only events with ORC and Mcm2-7 both on DNA for at least five frames; the high E_FRET state is read as the Orc6N-Mcm2-7N (tether) interaction.

Assay [4] has the same target. The source holds these as a separate data set.
For assay [5] the target is unchanged. The source holds these as a separate data set.

With “CDK-phosphorylated ORC^6N-550 (Orc2 and Orc6 phosphorylated), P54784 1-914; P32833 1-620; P54790 1-616; P54791 1-529; P50874 1-479; P38826 1-435”, in assay [1], the lifetime of the tether interaction, fold shorter than unphosphorylated ORC was found to be 2.5 fold; the median time of tether formation, fold of unphosphorylated ORC is > 2 fold; the percent of recruited Mcm2-7 that exhibited a stable high E FRET (tether) state is 53.9%.
“ORC that lacks Orc6N and has the Orc6 lnk1 region scrambled, labeled with DyLight 550 (ORC^6ΔN-lnk1scr-550) (from UniProt P54784 1-914; P32833 1-620; P54790 1-616; P54791 1-529; P50874 1-479; P38826 1-435) (complex)” returned a percent of stably recruited Mcm2-7 that reached the high E FRET (tether) state in assay [1] of 4.4%. In addition, in assay [2], the ORC molecules released within 7.8 s (three frames) after Cdt1 release stood at 83% and the ORC molecules retained for more than 100 s on DNA after Cdt1 release (of 106 molecules) is 0.
The like results for “ORC that lacks the Orc6 N-terminal domain, labeled with DyLight 550 (ORC^6ΔN-550) (from UniProt P54784 1-914; P32833 1-620; P54790 1-616; P54791 1-529; P50874 1-479; P38826 1-435) (complex)” were, in that order, 82.3%, 80% and 1.
In assay [1], “ORC with the Orc6 lnk1 region (aa 120 to 185) scrambled, labeled with DyLight 550 (ORC^6-lnk1scr-550) (from UniProt P54784 1-914; P32833 1-620; P54790 1-616; P54791 1-529; P50874 1-479; P38826 1-435) (complex)” had a median lifetime of the tether interaction of 9.7 s and a median time to form the tether interaction, fold of WT ORC of 2 fold. In assay [2], the ORC molecules released after 7.8 s after Cdt1 release stood at 63% and the ORC molecules retained for longer than 100 s after Cdt1 release came to 13%.
“origin recognition complex labeled at the Orc6 N-terminal region with DyLight 550 (ORC^6N-550), P54784 1-914; P32833 1-620; P54790 1-616; P54791 1-529; P50874 1-479; P38826 1-435” registered a recruitment events in which a high E FRET (tether) state formed (of 162 events) in assay [3] of 152. Moreover, in assay [1], the median duration of the Orc6N-Mcm2-7N interaction stood at 26.4 s, the median time to form the high E FRET state after Mcm2-7-Cdt1 recruitment is 7.2 s and the percent of stably recruited Mcm2-7 that reached the high E FRET (tether) state turned out to be 91.5%. Besides, in assay [2], the ORC molecules released within 7.8 s (three frames) after Cdt1 release turned out to be 39% and the ORC molecules retained for more than 100 s on DNA after Cdt1 release came to 24%. In assay [4], this substance came in with a median time of ORC retention after Cdt1 release, Orc6 tether interaction absent at the time of Cdt1 release of 3.8 s and a median time of ORC retention after Cdt1 release, Orc6 tether interaction present at the time of Cdt1 release of 23.8 s. Besides, in assay [5], the ORC molecules released within one video frame (~2.6 s) after Cdt1 release, tether interaction present as Cdt1 was released turned out to be 25% and the ORC molecules released within one video frame (~2.6 s) after Cdt1 release, tether not present as Cdt1 is released (of 33 molecules) was 16.
